Laboratory results reported in US20120129768A1 (JIANGSU HANSOH PHARMACEUTICAL GROUP, published 2012).
Starred links: 1 amine or outer side, 2 acyl side, 3 side chain; linkers in the order of their positions; H or OH if unused. Non-standard residues stand in square brackets, D forms with d. No end group written: not given here. *: point of attachment. εLys = N[C@@H](CCCCN[*:1])C(=O)[*:2]; Palmitoyl = CCCCCCCCCCCCCCCC(=O)*; Aib = CC(C)(N)C(=O)O

target: Glucagon-like peptide-1 receptor (GLP1R); experiment: cell-based or functional assay

Binder | EC50 (nM), cAMP-response-element luciferase reporter in HEK293 cells with GLP1R [nM] | Maximum reaction rate (%)
HAEGTFTSDVSSYLEEQAAEFIVWLVKGRGKKGGPPPS[εLys](Palmitoyl) (not fully specified) [HS-20007] | 0.000549 | 87
HAEGTFTSDVSSYLEGQAAEFIVWLVKGRGKKGGPPPS[εLys](Palmitoyl) (not fully specified) [HS-20005] | 0.000236 | 89.1
H[Aib]EGTFTSDVSSYLEEEAAKEFIAWLVRGGPSSGAPPPSK (not fully specified (residue 40); ends and bridges not checked) [HS-20004] | 0.000373 | 90.8
